According to paper PMC12300839, “Noncovalently Immobilized Glucose Oxidase/Horseradish Peroxidase Cascade on Polyamide Supports for Eco-Friendly Polyaniline Synthesis” (Molecules, 2025):

Substrate: OC[C@H]1OC(O)[C@H](O)[C@@H](O)[C@@H]1O
Experiment: purified protein
Type: biochemical, Aspergillus niger
Details: apparent Km of the whole free GOx/HRP cascade, not of isolated GOx, authors call the kinetics governed by HRP, glucose 50-150 µM, dissolved O2, constant TMB, 0.1 M acetate pH 4.5, room temperature

B1: glucose oxidase (GOx) (Aspergillus niger) (protein)
chain: LPHYIRSNGIEASLLTDPKDVSGRTVDYIIAGGGLTGLTTAARLTENPNISVLVIESGSYESDRGPIIEDLNAYGDIFGSSVDHAYETVELATNNQTALIRSGNGLGGSTLVNGGTWTRPHKAQVDSWETVFGNEGWNWDNVAAYSLQAERARAPNAKQIAAGHYFNASCHGVNGTVHAGPRDTGDDYSPIVKALMSAVEDRGVPTKKDFGCGDPHGVSMFPNTLHEDQVRSDAAREWLLPNYQRPNLQVLTGQYVGKVLLSQNGTTPRAVGVEFGTHKGNTHNVYAKHEVLLAAGSAVSPTILEYSGIGMKSILEPLGIDTVVDLPVGLNLQDQTTATVRSRITSAGAGQGQAAWFATFNETFGDYSEKAHELLNTKLEQWAEEAVARGGFHNTTALLIQYENYRDWIVNHNVAYSELFLDTAGVASFDVWDLLPFTRGYVHILDKDPYLHHFAYDPQYFLNELDLLGQAAATQLARNISNSGAMQTYFAGETIPGDNLAYDADLSAWTEYIPYHFRPNYHGVGTCSMMPKEMGGVVDNAARVYGVQGLRVIDGSIPPTQMSSHVMTVFYAMALKISDAILEDYASMQ
notes: commercial native enzyme, type VIII (Merck/Sigma Aldrich), free in solution, ~160 kDa, FAD-containing
B1 showed a Km of 275 µM and a Vmax of 696 µM/min/mg.
